# Biological target: SHP2-C SH2
# Assay: SH2 binding enrichment of the phosphorylated peptide, bacterial display (enrichment ratio); higher = better substrate or ligand; peptides without Tyr show the background
# 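Also: peptide library displayed on the E. coli surface as eCPX fusions, selected cells deep-sequenced, score is each peptide's frequency after selection divided by its frequency in the input.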
row,Sequence,SH2 binding enrichment
1,RPFRPYIIRGM [LRP5_Y1531_YF],0.625
2,RHSGSYLVTSV [APC_Y2838],0.914
3,KAWTIYRPEDS [ZBP1_Y165],0.719
4,SRVTQYERNFE [SNX1_Y463_D466N],0.593
5,PQGVRYIFTID [DCX_Y103_YF],1.09
6,AQQPIYIRVEG [NLRP7_Y318_V319I],0.614
7,NVDGKYSFLKV [GRM3_Y478_G475D_YF],0.944
8,LRGEDCGFSVD [PRKCI_Y430_Y430C],0.615
9,VDASYCGGRGV [ANTXR2_Y381_Y381C],0.331
10,VTPVMYTYDEY [COL10A1_Y623_G618V],0.685
11,IRDLKYTIENP [SND1_Y178],0.762
12,AVSEGYKDFRA [CDA_Y79],0.554
13,GHLYACDWISI [BEST1_Y227_Y227C],0.676
14,LKYAIYFEVRE [LAMA2_Y1258_A1261V],0.573
15,PRARTYCYKQE [KLHDC9_Y175_S171R],0.834
16,DTKDDYSALSV [IL17RB_Y457_N458S],0.771
17,ADEEEYEIIAA [FEStide_E_2014],0.97

row,Sequence,SH2 binding enrichment
1,KHCEDYVFSYN [DSC1_Y846_C848F],0.595
2,TDLAFYLVREG [ASL_Y376_K380E_YF],0.675
3,SLQSEYVHYGG [CDC14A_Y591],0.69
4,CQAHGYFCQPI [STK11_Y156_L160P],0.812
5,NHQFDYTFHWT [CSNK1A1_Y294_D297H_YF],1.05
6,EEVKAYLDFGE [CHAC2_Y78_R82G],0.59
7,ENAGYYFRVSA,0.976
8,NTPNTYLRVNV [ADD2_Y440],1.29
9,ALIKAYVKAVA [SMN1_Y43_D44V],0.676
10,VMTLDYSKTVV [SETD2_Y770_V768L],0.722
11,GINDDYGQLKN [NBN_Y679],1.42
12,SLQSEYVHFGG [CDC14A_Y591_YF],0.993
13,KAIMTYVSSFY [ACTN4_Y260],0.987
14,YSNKLYYQLEQ [PDPR_Y109],0.957
15,SDVDLYQVRIA [PSMD9_Y70_T74I],0.793
16,LENSTYQFIHV [CRB1_Y760_R764H_YF],0.652

# Biological target: c-Src SH2
# Assay: as above
row,Sequence,SH2 binding enrichment
1,RPFRPYIIRGM [LRP5_Y1531_YF],0.482
2,RHSGSYLVTSV [APC_Y2838],0.604
3,KAWTIYRPEDS [ZBP1_Y165],0.488
4,SRVTQYERNFE [SNX1_Y463_D466N],0.569
5,PQGVRYIFTID [DCX_Y103_YF],0.654
6,AQQPIYIRVEG [NLRP7_Y318_V319I],0.591
7,NVDGKYSFLKV [GRM3_Y478_G475D_YF],0.826
8,LRGEDCGFSVD [PRKCI_Y430_Y430C],0.841
9,VDASYCGGRGV [ANTXR2_Y381_Y381C],0.382
10,VTPVMYTYDEY [COL10A1_Y623_G618V],2.44
11,IRDLKYTIENP [SND1_Y178],0.438
12,AVSEGYKDFRA [CDA_Y79],0.385
13,GHLYACDWISI [BEST1_Y227_Y227C],0.771
14,LKYAIYFEVRE [LAMA2_Y1258_A1261V],0.544
15,PRARTYCYKQE [KLHDC9_Y175_S171R],0.661
16,DTKDDYSALSV [IL17RB_Y457_N458S],0.609
17,ADEEEYEIIAA [FEStide_E_2014],0.521

row,Sequence,SH2 binding enrichment
1,KHCEDYVFSYN [DSC1_Y846_C848F],0.552
2,TDLAFYLVREG [ASL_Y376_K380E_YF],0.612
3,SLQSEYVHYGG [CDC14A_Y591],0.533
4,CQAHGYFCQPI [STK11_Y156_L160P],0.907
5,NHQFDYTFHWT [CSNK1A1_Y294_D297H_YF],0.523
6,EEVKAYLDFGE [CHAC2_Y78_R82G],0.383
7,ENAGYYFRVSA,0.415
8,NTPNTYLRVNV [ADD2_Y440],0.485
9,ALIKAYVKAVA [SMN1_Y43_D44V],0.412
10,VMTLDYSKTVV [SETD2_Y770_V768L],0.458
11,GINDDYGQLKN [NBN_Y679],0.494
12,SLQSEYVHFGG [CDC14A_Y591_YF],0.629
13,KAIMTYVSSFY [ACTN4_Y260],0.564
14,YSNKLYYQLEQ [PDPR_Y109],1.12
15,SDVDLYQVRIA [PSMD9_Y70_T74I],0.431
16,LENSTYQFIHV [CRB1_Y760_R764H_YF],0.456

# — the supplement of paper PMC10065799, “High-throughput profiling of sequence recognition by tyrosine kinases and SH2 domains using bacterial peptide display” (eLife, 2023)
